Reference: patent US10471162B2, “Collagen targeted imaging probes” (priority 2014, dated 2019)

Key:
[1] = test system: pulmonary fibrosis, C57/BL6 mice (bleomycin or sham); assay: in vivo; assay type: in vivo, mouse; conditions: in vivo, iv
Experimental: (§1) Pulmonary fibrosis was induced in 7-8-week-old male C57/BL6 mice by transtracheal administration of bleomycin (BM; 2.5 U/kg) in 50 μL of PBS under direct vision using a small cervical incision. Sham animals received only PBS. Animals were placed in a small-animal PET/SPECT/CT scanner (Triumph; TriFoil Imaging), equipped with inhalation anesthesia and heating pad. Each animal was anesthetized with isoflurane (4% for induction, 2-2.5% for maintenance in medical air) and body temperature was kept at 37-38° C. using a heating pad. The femoral vein was cannulated for intravenous delivery of the PET agent. Each mouse was injected with approximately 0.1 mL and 20-50 μCi of ^64Cu-CBP(n), 0.1 mL and 20-50 μCi of ^68Ga-CBP(n) and 0.1 mL and 10-20 μCi of Al^18F-CBP(n) in a 18 mM solution of sucrose in water, followed by saline flush. […] The lungs, blood, urine, heart, liver, left rectus femoris muscle, spleen, small intestine, kidneys, left femur bone were collected from all animals. The tissues were weighed, and radioactivity in each tissue was measured on a gamma counter (CobraII Auto gamma; Packard). The radioactivity in the lung was reported as percent injected dose per gram corrected with the average sham weight, which was calculated by dividing the counts of ^64Cu per average sham tissue weight in gram by the total of counts of the injected dose. The radioactivity in every other tissue was reported as percent injected dose per gram (% ID/g), which was calculated by dividing the counts of ^64Cu per gram of tissue by the total of counts of the injected dose. A p-value of less than 0.05 was considered significant. Uncertainties are expressed as the standard error of the mean.

in vivo = assay type: in vivo, mouse; conditions: male, C57/BL6, mouse, in vivo, iv, total radioactivity, Biodistribution % ID/g, sm. intestine
Experimental: as §1

[2] = test system: pulmonary fibrosis, C57/BL6 mice (bleomycin or sham); conditions: mouse, in vivo
Experimental: Pulmonary fibrosis was induced in 7-8-week-old male C57/BL6 mice by transtracheal administration of bleomycin (BM; 2.5 U/kg) in 50 μL of PBS under direct vision using a small cervical incision. Sham animals received only PBS. Animals were placed in a small-animal PET/SPECT/CT scanner (Triumph; TriFoil Imaging), equipped with inhalation anesthesia and heating pad. Each animal was anesthetized with isoflurane (4% for induction, 1-1.5% for maintenance in medical air). After placement of an in-dwelling catheter in the femoral vein for probe administration, mice were positioned in the PET-CT and the probe was given as a bolus as the PET acquisition began. Mice were imaged continuously by PET for 120 minutes. […] Instrument calibration was performed with phantoms containing small known amounts of radioactivity. […] Reconstructed PET/CT data were quantitatively evaluated using AMIDE software package (Loening and Gambhir, 2003). […] The radioactivity concentration within organs was obtained from mean pixel values within the VOI volume and converted to counts per milliliter per minute and then divided by the injected dose (ID) to obtain an imaging VOI-derived percentage of the injected radioactive dose per cubic centimeter of tissue (% ID/cc). […] Instrument calibration was performed with phantoms containing small known amount of radioactivity. […]

[3] = rat, in vivo
Experimental: The pharmacokinetics and metabolic stability of the probes were evaluated in Adult male Wistar rats. The right femoral vein was cannulated for intravenous delivery of the PET agent and the right femoral artery was cannulated for blood sampling. Each animal was injected with approximately 50-70 μCi of ^64Cu-CBP(n) diluted in 0.2-0.3 mL with an 18 mM solution of sucrose in water, followed by saline flush. After probe injection, several blood draws were collected at 0, 2, 5, 10, 15, 30, 60 and 120 minutes post injection into ethylenediaminetetraacetic acid (EDTA) blood tubes. Blood was weighed, and radioactivity in the blood was measured on a gamma counter to assess clearance of total ^64Cu. The serum was isolated by centrifugation of the blood (10 minutes, 4950 rpm) and proteins were precipitated with a mixture of cold methanol/acetonitrile (1/1). Solids were removed by centrifugation and the supernatant was injected onto an analytic HPLC column. The eluent was collected every 30 seconds, and the activity of each fraction was measured using a gamma counter. The result was compared with standards of pure probe and probe immediately isolated from plasma (t=0 sample).

rat tail collagen = target: T1, rat tail collagen (Rattus norvegicus, UniProt P02454+P02466); assay: rat tail collagen-binding assay; conditions: 2 hours at room temperature, single binding site model
T1 construct: from tissue; host or cells: rat tail
Experimental: Binding isotherms were obtained by following a method previously reported. (Caravan, P., Das, B., Dumas, S., Epstein, F. H., Helm, P. A., Jacques, V., Koerner, S., Kolodziej, A., Shen, L., Sun, W., Zhang, Z., Angewandte Chemie, 2007, 119(43), 8319-8321.) Briefly, increasing concentrations of a mixture of ^63/65Cu-CBP(n) and ^64Cu-CBP(n) were added to collagen containing wells. […] An aliquot of each solution was reserved as a measure of the total concentration. The plates were incubated on a shaker table (300 rpm) for 2 hours at room temperature to allow the compound to bind. After 2 hours, the supernatant from each well (with or without collagen) was assayed for ^64Cu content. The relative amount of free, unbound compound in the sample supernatants and the amount of compound in the reserved (total) sample were determined by using a gamma counter. The bound concentration is [Total]−[Free]. The concentration of ^63/65Cu-CBP(n) was less than the collagen concentration and the data were fit to a model of a single binding site with dissociation constant, Kd.

T1 sequence (P02454 152-1207 limits assumed): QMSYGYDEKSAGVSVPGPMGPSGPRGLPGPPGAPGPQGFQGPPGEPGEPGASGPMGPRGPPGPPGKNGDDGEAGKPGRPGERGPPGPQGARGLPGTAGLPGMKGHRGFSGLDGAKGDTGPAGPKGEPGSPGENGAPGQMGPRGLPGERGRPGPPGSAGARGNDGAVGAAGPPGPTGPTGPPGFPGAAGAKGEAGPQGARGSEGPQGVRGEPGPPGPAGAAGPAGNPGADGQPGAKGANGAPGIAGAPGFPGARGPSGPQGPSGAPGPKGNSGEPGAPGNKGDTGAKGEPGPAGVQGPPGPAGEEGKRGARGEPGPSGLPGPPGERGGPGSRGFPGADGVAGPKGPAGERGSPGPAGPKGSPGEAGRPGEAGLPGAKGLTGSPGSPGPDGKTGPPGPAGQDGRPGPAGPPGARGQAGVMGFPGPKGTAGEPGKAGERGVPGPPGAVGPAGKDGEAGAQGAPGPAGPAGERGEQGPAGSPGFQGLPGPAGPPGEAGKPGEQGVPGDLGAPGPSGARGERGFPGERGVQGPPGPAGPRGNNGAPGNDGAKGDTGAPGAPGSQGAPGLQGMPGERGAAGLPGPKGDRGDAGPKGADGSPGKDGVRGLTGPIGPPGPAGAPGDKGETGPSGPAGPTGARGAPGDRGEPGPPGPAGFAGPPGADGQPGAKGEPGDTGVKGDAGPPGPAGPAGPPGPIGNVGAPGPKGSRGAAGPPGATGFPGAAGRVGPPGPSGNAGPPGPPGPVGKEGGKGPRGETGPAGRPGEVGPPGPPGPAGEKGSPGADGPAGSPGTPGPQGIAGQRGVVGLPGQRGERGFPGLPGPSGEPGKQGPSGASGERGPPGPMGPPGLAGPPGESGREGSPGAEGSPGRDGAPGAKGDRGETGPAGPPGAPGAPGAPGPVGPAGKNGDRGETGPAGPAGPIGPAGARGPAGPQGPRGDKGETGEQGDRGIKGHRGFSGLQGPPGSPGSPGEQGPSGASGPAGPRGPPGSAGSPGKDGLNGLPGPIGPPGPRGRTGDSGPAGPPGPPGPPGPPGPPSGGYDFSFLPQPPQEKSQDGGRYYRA
T1 sequence (P02466 86-1125 limits assumed): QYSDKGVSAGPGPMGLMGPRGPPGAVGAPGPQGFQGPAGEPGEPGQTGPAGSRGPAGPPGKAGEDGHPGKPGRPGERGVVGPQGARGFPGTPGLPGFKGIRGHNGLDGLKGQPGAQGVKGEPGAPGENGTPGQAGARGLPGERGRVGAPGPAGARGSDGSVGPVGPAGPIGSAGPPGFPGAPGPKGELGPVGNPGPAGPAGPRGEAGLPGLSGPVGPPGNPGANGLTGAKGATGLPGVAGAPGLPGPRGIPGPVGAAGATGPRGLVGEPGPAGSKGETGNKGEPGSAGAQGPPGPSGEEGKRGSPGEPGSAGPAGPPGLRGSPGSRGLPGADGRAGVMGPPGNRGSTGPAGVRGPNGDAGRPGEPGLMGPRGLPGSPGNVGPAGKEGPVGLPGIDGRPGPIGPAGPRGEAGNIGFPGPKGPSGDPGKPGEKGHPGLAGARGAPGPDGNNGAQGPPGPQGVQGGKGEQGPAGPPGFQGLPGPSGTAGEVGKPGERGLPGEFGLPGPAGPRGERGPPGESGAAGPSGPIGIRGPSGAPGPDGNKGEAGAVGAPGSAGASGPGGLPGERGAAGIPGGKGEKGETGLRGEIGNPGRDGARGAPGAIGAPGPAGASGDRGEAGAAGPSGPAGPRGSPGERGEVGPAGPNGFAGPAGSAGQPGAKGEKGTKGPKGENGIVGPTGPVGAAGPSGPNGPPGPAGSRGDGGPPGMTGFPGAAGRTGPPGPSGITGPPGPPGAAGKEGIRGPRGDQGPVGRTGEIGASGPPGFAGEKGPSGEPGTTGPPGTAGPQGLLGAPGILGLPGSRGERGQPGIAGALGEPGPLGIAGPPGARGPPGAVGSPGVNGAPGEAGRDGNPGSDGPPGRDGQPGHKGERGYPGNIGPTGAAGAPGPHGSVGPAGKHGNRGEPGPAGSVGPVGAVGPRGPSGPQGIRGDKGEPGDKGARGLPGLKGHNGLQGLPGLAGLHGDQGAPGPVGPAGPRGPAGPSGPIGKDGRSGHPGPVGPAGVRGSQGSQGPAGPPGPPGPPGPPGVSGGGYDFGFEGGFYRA

## CC(C)C[C@H](NC(=O)[C@@H]1CSSC[C@H](NC(=O)[C@H](Cc2c[nH]cn2)NC(=O)[C@H](Cc2c[nH]c3ccccc23)NC(=O)[C@H](CCCCNC(=O)CNC(=O)CCC(C(=O)O)N2CCN(CC(=O)O)CCN(CC(=O)O)CC2)NC(=O)CNC(=O)CCC(C(=O)O)N2CCN(CC(=O)O)CCN(CC(=O)O)CC2)C(=O)N[C@@H]([C@@H](C)O)C(=O)N[C@@H]([C@@H](C)O)C(=O)N[C@@H](CCCCNC(=O)CCC(C(=O)O)N2CCN(CC(=O)O)CCN(CC(=O)O)CC2)C(=O)N[C@@H](Cc2ccccc2)C(=O)N2CCC[C@H]2C(=O)N[C@@H](Cc2c[nH]cn2)C(=O)N[C@@H](Cc2c[nH]cn2)C(=O)N[C@@H](Cc2ccc(O)cc2)C(=O)N1)C(=O)N[C@@H](Cc1ccc(O)cc1)C(=O)N[C@@H](Cc1ccc(-c2ccccc2)cc1)C(N)=O (single isomer, unassigned) [CBP7]
[1]; male, C57/BL6, mouse, 2 h
  Biodistribution % ID/g, sm. intestine: 0.877 ± 0.077 % ID/g
[1]; mouse
  route of excretion: excreted mainly through the kidneys
In vivo
  tissue uptake at 2 h: 0.853 ± 0.246 %ID/g
[2]
  Mean PET activity in heart and muscle, BM-treated vs sham, in words: not significantly different
[3]
  metabolic stability compared with CBP(n) probes with a single NODAGA chelator: more metabolically stable
Rat tail collagen
  Kd: 2400 ± 1500 nM
